Values of other authors in publication PMC5021969.

Target: CXCL1 (Mus musculus) (UniProt P12850)

Kd: 10 µM
Substance: CXCL1 (from UniProt P12850)
